Results reported in patent US20240192215A1 (E AND S HEALTHCARE, published 2024).

T1: human thioredoxin-1 (Trx1) (human, UniProt P10599 1-105)
T1 construct: also called hTrx1; hTRX1
T1 sequence (looked up): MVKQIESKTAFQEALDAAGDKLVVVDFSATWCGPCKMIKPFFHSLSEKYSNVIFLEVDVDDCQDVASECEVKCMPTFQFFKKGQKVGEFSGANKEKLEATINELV

T2: Peptide_054 (human)
T2 construct: 15-mer of hTrx1 on microarray
T2 peptide: MIKPFFHSLSEKYSN

T3: Peptide_056 (human)
T3 construct: 15-mer of hTrx1 on microarray
T3 peptide: KPFFHSLSEKYSNVI

T4: Peptide_046 (human)
T4 construct: 15-mer of hTrx1 on microarray
T4 peptide: ATWCGPCKMIKPFFH

T5: Peptide_057 (human)
T5 construct: 15-mer of hTrx1 on microarray
T5 peptide: PFFHSLSEKYSNVIF

T6: Peptide_047 (human)
T6 construct: 15-mer of hTrx1 on microarray
T6 peptide: TWCGPCKMIKPFFHS

T7: Peptide_050 (human)
T7 construct: 15-mer of hTrx1 on microarray
T7 peptide: GPCKMIKPFFHSLSE

T8: Peptide_055 (human)
T8 construct: 15-mer of hTrx1 on microarray
T8 peptide: IKPFFHSLSEKYSNV

T9: Peptide_052 (human)
T9 construct: 15-mer of hTrx1 on microarray
T9 peptide: CKMIKPFFHSLSEKY

T10: Peptide_048 (human)
T10 construct: 15-mer of hTrx1 on microarray
T10 peptide: WCGPCKMIKPFFHSL

T11: Peptide_049 (human)
T11 construct: 15-mer of hTrx1 on microarray
T11 peptide: CGPCKMIKPFFHSLS

T12: Peptide_053 (human)
T12 construct: 15-mer of hTrx1 on microarray
T12 peptide: KMIKPFFHSLSEKYS

B1: monoclonal antibody B266-1 (antibody, human IgG1)
light: QIVLTQSPAIMSASPGEKVTMTCSASSRISYMYWYQQKPGTSPKRWIYDTSKLASGVPARFSGSGSGTSYSLTISTMEAEDAATYYCHQRSSYPTFGAGTKLELKSVAAPSVFIFPPSDEQLKSGTASVVCLLNNFYPREAKVQWKVDNALQSGNSQESVTEQDSKDSTYSLSSTLTLSKADYEKHKVYACEVTHQGLSSPVTKSFNRGEC
heavy: not shown
notes: B266 with the Fc part changed to human IgG1; also called B266-1 (Trx1-hIgG1); B266-1 (hTrx1-hIgG1)
B2: monoclonal antibody B264 (antibody, mouse IgG1, kappa, V domains shown)
VH: QVQLQQSGAELARPGASVKMSCKASGYTFTSYTMHWVKQRPGQGLEWIGYINPTSDYTNYNQKFKDKATLTADKSSSTAYMQLSSLTSEDSAVYFCASEGGFLYYFDYWGQGTTLTVSS
VL: DVLMTQTPLSLPVSLGDQASISCRSSQSIVHSNGNTYLEWYLQKPGQSPKLLIYKVSNRFSGVPDRFSGSGSGTDFTLKISRVEAEDLGVYYCFQGSHVPYTFGGGTKLEIKR
notes: also called AB264; B264 (Trx1-mIgG1)

Assays:
[1] = biological target: T1, human thioredoxin-1 (Trx1); assay: ELISA on 200 ng coated hTrx1
Experimental: A reaction solution was removed, followed by washing five times with 200 μL of 1×PBST. […] A reaction solution was removed, and washed five times with 200 μL of 1×PBST. 100 μL of a color reagent was dispensed into each well, and after a 10-minute reaction, 50 μL of 2.5M H₂SO₄ was dispensed into each well. After color development, the extent of the color development was assessed using an ELISA reader.

Peptide_054 [2] = biological target: T2, Peptide_054; assay: peptide microarray, 0.0016 ug/mL
Experimental: (§1) 5, 1, 0.2, 0.04, 0.008 and 0.0016 μg/mL serial dilutions were incubated on a single multi-well microarray slide at 30° C. for 1 hour. The slide includes 21 individual mini-arrays (one mini-array per sample dilution).
(§2) DyLight 650 was used as a label. False-positive binding to a peptide was evaluated by performing one additional control incubation in which only a secondary antibody was applied on the same microarray slide. Before performing each step, the microarrays were washed with a washing buffer.

Peptide_056 [3] = biological target: T3, Peptide_056; assay: peptide microarray, 0.0016 ug/mL
Experimental: as §1, §2

Peptide_046 [4] = biological target: T4, Peptide_046; assay: peptide microarray, 0.0016 ug/mL
Experimental: as §1, §2

Peptide_057 [5] = biological target: T5, Peptide_057; assay: peptide microarray, 0.0016 ug/mL
Experimental: as §1, §2

Peptide_047 [6] = biological target: T6, Peptide_047; assay: peptide microarray, 0.0016 ug/mL
Experimental: as §1, §2

Peptide_050 [7] = biological target: T7, Peptide_050; assay: peptide microarray, 0.0016 ug/mL
Experimental: as §1, §2

Peptide_055 [8] = biological target: T8, Peptide_055; assay: peptide microarray, 0.0016 ug/mL
Experimental: as §1, §2

Peptide_052 [9] = biological target: T9, Peptide_052; assay: peptide microarray, 0.0016 ug/mL
Experimental: as §1, §2

Peptide_048 [10] = biological target: T10, Peptide_048; assay: peptide microarray, 0.0016 ug/mL
Experimental: as §1, §2

Peptide_049 [11] = biological target: T11, Peptide_049; assay: peptide microarray, 0.0016 ug/mL
Experimental: as §1, §2

Peptide_053 [12] = biological target: T12, Peptide_053; assay: peptide microarray, 0.0016 ug/mL
Experimental: as §1, §2

Peptide_054 [13] = biological target: T2, Peptide_054; assay: peptide microarray, 0.2 ug/mL
Experimental: as §1, §2

Peptide_056 [14] = biological target: T3, Peptide_056; assay: peptide microarray, 0.2 ug/mL
Experimental: as §1, §2

Peptide_046 [15] = biological target: T4, Peptide_046; assay: peptide microarray, 0.2 ug/mL
Experimental: as §1, §2

Peptide_057 [16] = biological target: T5, Peptide_057; assay: peptide microarray, 0.2 ug/mL
Experimental: as §1, §2

Peptide_047 [17] = biological target: T6, Peptide_047; assay: peptide microarray, 0.2 ug/mL
Experimental: as §1, §2

Peptide_050 [18] = biological target: T7, Peptide_050; assay: peptide microarray, 0.2 ug/mL
Experimental: as §1, §2

Peptide_055 [19] = biological target: T8, Peptide_055; assay: peptide microarray, 0.2 ug/mL
Experimental: as §1, §2

Peptide_052 [20] = biological target: T9, Peptide_052; assay: peptide microarray, 0.2 ug/mL
Experimental: as §1, §2

Peptide_048 [21] = biological target: T10, Peptide_048; assay: peptide microarray, 0.2 ug/mL
Experimental: as §1, §2

Peptide_049 [22] = biological target: T11, Peptide_049; assay: peptide microarray, 0.2 ug/mL
Experimental: as §1, §2

Peptide_053 [23] = biological target: T12, Peptide_053; assay: peptide microarray, 0.2 ug/mL
Experimental: as §1, §2

Peptide_054 [24] = biological target: T2, Peptide_054; assay: peptide microarray, head 0.08 ug (text 0.008 ug/mL)
Experimental: as §1, §2

Peptide_056 [25] = biological target: T3, Peptide_056; assay: as above
Experimental: as §1, §2

Peptide_046 [26] = biological target: T4, Peptide_046; assay: as above
Experimental: as §1, §2

Peptide_057 [27] = biological target: T5, Peptide_057; assay: as above
Experimental: as §1, §2

Peptide_047 [28] = biological target: T6, Peptide_047; assay: as above
Experimental: as §1, §2

Peptide_050 [29] = biological target: T7, Peptide_050; assay: as above
Experimental: as §1, §2

Peptide_055 [30] = biological target: T8, Peptide_055; assay: as above
Experimental: as §1, §2

Peptide_052 [31] = biological target: T9, Peptide_052; assay: as above
Experimental: as §1, §2

Peptide_048 [32] = biological target: T10, Peptide_048; assay: as above
Experimental: as §1, §2

Peptide_049 [33] = biological target: T11, Peptide_049; assay: as above
Experimental: as §1, §2

Peptide_053 [34] = biological target: T12, Peptide_053; assay: as above
Experimental: as §1, §2

Peptide_054 [35] = biological target: T2, Peptide_054; assay: peptide microarray, 0.04 ug/mL
Experimental: as §1, §2

Peptide_050 [36] = biological target: T7, Peptide_050; assay: peptide microarray, 0.04 ug/mL
Experimental: as §1, §2

Peptide_048 [37] = biological target: T10, Peptide_048; assay: peptide microarray, 0.04 ug/mL
Experimental: as §1, §2

Peptide_049 [38] = biological target: T11, Peptide_049; assay: peptide microarray, 0.04 ug/mL
Experimental: as §1, §2

Binder | Kd [1] [nM] | signal (blank-control = 1) (Peptide_054 [2]) | signal (blank-control = 1) (Peptide_056 [3]) | signal (blank-control = 1) (Peptide_046 [4]) | signal (blank-control = 1) (Peptide_057 [5]) | signal (blank-control = 1) (Peptide_047 [6]) | signal (blank-control = 1) (Peptide_050 [7]) | signal (blank-control = 1) (Peptide_055 [8]) | signal (blank-control = 1) (Peptide_052 [9]) | signal (blank-control = 1) (Peptide_048 [10]) | signal (blank-control = 1) (Peptide_049 [11]) | signal (blank-control = 1) (Peptide_053 [12]) | signal (blank-control = 1) (Peptide_054 [13]) | signal (blank-control = 1) (Peptide_056 [14]) | signal (blank-control = 1) (Peptide_046 [15]) | signal (blank-control = 1) (Peptide_057 [16]) | signal (blank-control = 1) (Peptide_047 [17]) | signal (blank-control = 1) (Peptide_050 [18]) | signal (blank-control = 1) (Peptide_055 [19]) | signal (blank-control = 1) (Peptide_052 [20]) | other results
B1 | 0.21 | 0.73 | 1.18 | 1.79 | 1.93 | 1.18 | 0.62 | 1.05 | 1.37 | 7.61 | 1.37 | 1.42 | 0.84 | 1.24 | 2 | 1.94 | 1.58 | 0.65 | 1.04 | 1.38 | signal (blank-control = 1) (Peptide_048 [21]): 5.99; signal (blank-control = 1) (Peptide_049 [22]): 1.45; signal (blank-control = 1) (Peptide_053 [23]): 1.66; signal (blank-control = 1) (Peptide_054 [24]): 0.71; signal (blank-control = 1) (Peptide_056 [25]): 1.07; signal (blank-control = 1) (Peptide_046 [26]): 1.64; signal (blank-control = 1) (Peptide_057 [27]): 2.09; signal (blank-control = 1) (Peptide_047 [28]): 1.11; signal (blank-control = 1) (Peptide_050 [29]): 0.52; signal (blank-control = 1) (Peptide_055 [30]): 0.85; signal (blank-control = 1) (Peptide_052 [31]): 1.12; signal (blank-control = 1) (Peptide_048 [32]): 7.25; signal (blank-control = 1) (Peptide_049 [33]): 1.31; signal (blank-control = 1) (Peptide_053 [34]): 1.44; signal (blank-control = 1) (Peptide_054 [35]): 0.71; signal (blank-control = 1) (Peptide_050 [36]): 0.68; signal (blank-control = 1) (Peptide_048 [37]): 6.57; signal (blank-control = 1) (Peptide_049 [38]): 1.51
B2 | 0.17 | 0.55 | 0.99 | 1.69 | 1.73 | 1.15 | 0.51 | 0.81 | 1.15 | 7.46 | 1.18 | 1.41 | 0.89 | 1.72 | 3.44 | 2.08 | 2.52 | 0.46 | 2.21 | 2.56 | reaction value (OD 490) relative to B266-1 [1]: ~50%; signal (blank-control = 1) (Peptide_048 [21]): 4.61; signal (blank-control = 1) (Peptide_049 [22]): 1.34; signal (blank-control = 1) (Peptide_053 [23]): 4.75; signal (blank-control = 1) (Peptide_054 [24]): 0.63; signal (blank-control = 1) (Peptide_056 [25]): 1.11; signal (blank-control = 1) (Peptide_046 [26]): 2.11; signal (blank-control = 1) (Peptide_057 [27]): 2.27; signal (blank-control = 1) (Peptide_047 [28]): 1.52; signal (blank-control = 1) (Peptide_050 [29]): 0.65; signal (blank-control = 1) (Peptide_055 [30]): 0.99; signal (blank-control = 1) (Peptide_052 [31]): 1.23; signal (blank-control = 1) (Peptide_048 [32]): 7.68; signal (blank-control = 1) (Peptide_049 [33]): 1.43; signal (blank-control = 1) (Peptide_053 [34]): 1.76; signal (blank-control = 1) (Peptide_054 [35]): 0.99; signal (blank-control = 1) (Peptide_050 [36]): 0.64; signal (blank-control = 1) (Peptide_048 [37]): 6.34; signal (blank-control = 1) (Peptide_049 [38]): 1.48
